Patent US11945858B2, “Antibodies and antibody fragments against HNAV1.7 channel and their use in pain and cancer indications” (NATIONAL RESEARCH COUNCIL OF CANADA, priority 2018, dated 2024)
“Also recorded” adds a separate entry of the source.

How the values were obtained:
[1] = test system: CHO-3E7; assay: Cell-ELISA on live CHO-3E7 cells; type: cell-based, Chinese hamster; settings: hybridoma supernatant, OD450 nm
Method: Cell-ELISA. Sterile 96-well plates (Costar #3595) were pre-treated with 50 μl/well of branched polyethyleneimine (PEI, Sigma Cat #408727) at 25 μg/ml in PBS for 30 min at room temperature. PEI was removed and CHO-3E7 or hNAv1.7-CHO (ChanTest cat #CT4003) were seeded at 6×10^5 cells per well in FreeStyle F17 Expression Medium (Gibco Cat #A1383501) and incubated overnight at 37° C., 5% CO2. Microplates were blocked with Starting block (Thermofisher Cat #37538) for 30 min at room temperature, and 50 μl of hybridoma supernatants were added and incubated at 4° C. for 3 h. Plates were washed 5 times with PBS and incubated for one hour at 4° C. with 50 μl of secondary antibody HRP-conjugated F(ab′)2 goat anti-mouse IgG (H+L) (Jackson Immunoresearch #115-036-062) diluted 1/5000 in blocking buffer. After 10 washes with PBS, 50 μl of TMB substrate solution (Pierce Cat #34021) was added and further incubated for 60 min at room temperature. Twenty-five μl/well of stop solution ([…] 1M) was added and OD450 nm measurements were done using a microplate reader (Spectramax 340 PC, Molecular Devices).

[2] = test system: CFA-induced thermal hyperalgesia; assay: Hargreaves Model of Hyperalgesia in rats; type: in vivo, rat; settings: for Maximum percentage of the effect (% Effect; % MPE): time of maximum (1, 2 or 4 h)
Method: Hargreaves Model of Hyperalgesia in rats. Rats aged 4-6 weeks (weight range, 180-220 g) were used for intraplantar (ipl) administrations of various antibodies and evaluation of their efficacy in the Hargreaves model of inflammatory pain. Chronic inflammatory pain is induced by injecting a low volume (50 μl) of complete Freund's adjuvant (CFA; heat-killed M. tuberculosis—Sigma, St. Louis, Mo.—suspended in oil:saline 2:1 emulsion) into the right hind paw. The paw withdrawal latency in response to the application of a radiant stimulus onto the plantar surface of both right and left paw was measured using the plantar Analgesia Meter equipment for paw stimulation (IITC Life Science, Woodland Hills, Calif.). The time taken by the animal to respond by licking or flicking its paw is interpreted as positive response (paw withdrawal latency). After 48 h of the CFA injection, the baseline for latency paw withdrawal was measured and the mAbs tested. […] A cut-off time (20 sec) is established at the end of which the heat source shuts off automatically to avoid tissue damage. Animals were kept (randomized) one per cage and staff performing pain experiments are blinded to the content of injectable compounds. Percentage of maximum possible effect (% MPE) was calculated using the formula % MPE=(Test Latency−Baseline Latency)×100/(Cut-off−Baseline Latency).

[3] = test system: OD1-evoked Nav1.7-mediated spontaneous pain behaviours; type: in vivo, mouse; settings: 100 μg, injected 60 minutes prior to OD1; 20 min after the injection
[4] = test system: VHH FC5; assay: Surface Plasmon Resonance of mAbs, FC5 control; type: binding; settings: SPR; 25 °C
Method: (§1) Surface Plasmon Resonance of mAbs. FC5 and FC5DIE3IR proteins were SEC purified using a Superdex 75 column (GE Healthcare) connected to an AKTAPurifier (GE Healthcare) in HBS-EP+ running buffer (10 mM HEPES, pH 7.4, containing 150 mM NaCl, 3 mM EDTA and 0.05% P20) at a flow rate of 1 ml/min. Monomeric eluted peaks were used to flow over Fc-capture 3A8 mAb surfaces. To prepare the 3A8 mAb surfaces, approximately 6000 RUs of anti-mouse IgG (GE Healthcare) was first immobilized on CM5 Series S sensor chips (GE Healthcare) at pH 5.0, using standard amine coupling methods previously reported (Hussack et al., 2011) and according to the manufacturer's instructions (GE Healthcare). HBS-EP running buffer used for SPR experiments. The mAb 3A8 was captured on the anti-mouse IgG surface using 10 μg/ml of mAb, 30 sec contact time and flow rate of 10 μl/min. IMAC-purified DI-D VHH was passed through a Superdex 75 (GE Healthcare) column for SEC purification in HBS-EP buffer (10 mM HEPES, pH 7.4, containing 150 mM NaCl, 3 mM EDTA and 0.005% P20), connected to an AKTAPurifier (GE Healthcare) at a flow rate of 1 ml/min. Test binding experiments of FC5 control and FC5DIE3IR involved flowing 1 μM concentrations of SEC-pure material over the mAb surface at a flow rate of 30 μl/min for 5 min. Surfaces could be regenerated using 10 mM glycine, pH 1.7, with a 120 sec pulse at 20 μl/min. All SPR experiments were evaluated with Biacore T200 Software v 3.0. For kinetic analysis, single cycle kinetic analysis was used by flowing a range of FC5DIE3IR concentrations (320 nM-20 nM) at a flow rate of 30 μl/min, with 600 sec contact time and 1200 sec dissociation. Regeneration conditions were the same as above. Data were fit to a 1:1 binding model and analyzed using the Biacore T200 Software v3.0.
(§2) Surfaces were regenerated by washing with running buffer (HBS-EP). Data were analyzed with BIAevaluation 4.1 software as described (Hussack et al., 2011) and affinities determined using the steady state binding model.
(§3) Surface Plasmon Resonance (SPR) for monoclonal antibodies.

[5] = test system: overlapping antigen-peptides derived from DIE3IR; assay: ELISA of mAbs on overlapping antigen-peptides derived from DIE3IR; type: binding, human; settings: peptides coated 100-500 ng/well
Method: The peptides were custom-synthesized (Biomatik) and tested for antibody binding by ELISA. […] The wells were blocked with 1% BSA in TBS-T for 30 min and then incubated with 1:1000 dilution of anti-hNav1.7 mAb at room temperature (RT) for one hr. Following three TBS-T washes (3×5 min), mAb binding to peptides was detected by incubating with HRP-conjugated anti-mouse Fc antibody for 90 min at RT in TBS-T. The bound antibody was detected with SureBlue™ TMB reagent kit (KPL) by colorimetric measurement at 450 nm according to manufacturer's instructions.
To identify the epitope for mAb 3A8 on DIE3IR, seven overlapping antigen-peptides were generated (FIG. 15A) and an ELISA was performed to determine the binding between these peptides and the various mAb (FIGS. 15C to 15I).

[6] = test system: glioblastoma U87MG cells; assay: Soft agar assay, U87MG; settings: mAb 1 μM
[7] = test system: ovarian cancer SKOV-3 cells; assay: Soft agar assay, SKOV-3; settings: mAb 1 μM; FIG. 24D
[8] = test system: glioblastoma U87MGvIII cells; assay: Soft agar assay, U87MGvIII; settings: mAb 1 μM; FIG. 24C
[9] = target: hNav1.7 channels (Homo sapiens, UniProt Q15858, W1161R); assay: Patch-clamp whole-cell recordings in hNav1.7-HEK293 cells; type: cell-based
[10] = target: T1, FC5DIE3IR (Homo sapiens, UniProt Q15858); assay: Surface Plasmon Resonance of mAbs, FC5DIE3IR; type: binding
T1 construct: The supernatant was collected and loaded on a 5 ml MabSelect™ SuRe™ column; made in house; host or cells: CHO-3E7 (transient, pTT5 vector), purified from supernatant
Method: as §1, §2, §3

[11] = target: T1, FC5DIE3IR; assay: Hydrogen-Deuterium Exchange Mass Spectrometry (HDX-MS); type: binding; settings: labelling 1, 10 and 60 min
[12] = −20 mV, after antibody application (1 μM)

Chain of VHH FC5 (as listed by the source): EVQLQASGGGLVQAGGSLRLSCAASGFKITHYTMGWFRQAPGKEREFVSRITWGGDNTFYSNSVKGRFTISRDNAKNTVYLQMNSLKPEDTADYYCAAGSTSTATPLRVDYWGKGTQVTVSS

B1: 1H5: anti-hNav1.7 mouse monoclonal antibody, IgG1, k; heavy chain SEQ ID NO: 121, light chain SEQ ID NO: 123 (antibody, V domains shown)
VH: EVKLVESGGGLVKPGGSLKLSCAASGFTFRSYAMSWVRQTPEKGLEWVASISSGGSTYYPDSVKGRFTISRDNAGNILYLQMSSLRSEDTAMYYCARGYDGYYERIWYYAMDYWGQGTSVTVSSAKTTPPSVY
VL: DIVMTQSQKFMSTSVGDRVTVSCKASQNVGTIVAWYQQKPGQSPKALIYSASYRFSGVPDRFTGSGSGTDFTLTISNVQSEDLAEYFCQQYNTYPLTFGSGTKLEIKRADAAPTVSIFPPSS
modifications: Heavy chain of the 1H5 antibody without leader sequence; Light chain of the 1H5 antibody without leader sequence
**Q.** With B1 as the molecule, how does the “ELISA on live cells (duplicates) CHO-3E7” value ([1]; duplicate 1) read?
**A.** −0.014

**Q.** And the “ELISA on live cells (duplicates) CHO-3E7” value ([1]; duplicate 2)?
**A.** 0.029

**Q.** And the “Percentage of effect after injection (on left paw withdrawal)” value (“Percentage of effect after injection” below) ([2]; 100 μg intraplantar, 0 h)?
**A.** 0%

**Q.** What about the Latency paw withdrawal ([2]; 100 μg intraplantar, 1 h) of the same molecule?
**A.** 7.97 ± 0.61 s

**Q.** And the “Percentage of effect after injection” value ([2]; 100 μg intraplantar, 1 h)?
**A.** 21.85% ± 3.71

**Q.** And the “Percentage of effect after injection” value ([2]; 100 μg intraplantar, 2 h)?
**A.** 35.23% ± 0.88

**Q.** What about the “Percentage of effect after injection” value ([2]; 100 μg intraplantar, 4 h) of the same molecule?
**A.** 31.20% ± 5.18

**Q.** And the “Maximum percentage of the effect (% Effect; % MPE)” value ([2]; 100 μg intraplantar)?
**A.** 35.23±0.88%

**Q.** And the “Time spent in pain behaviors (saline plus OD1 = 100%)” value [3]?
**A.** 73.84%±16.78

**Q.** What about the “Binding to FC5 control (comment, in words)” value [4] of the same molecule?
**A.** No binding

**Q.** What about the “Peptide in which the binding motif resides / that is bound” value [5] of the same molecule?
**A.** Pep #3

**Q.** What about the “Reduction of colony formation” value ([6]; FIG. 24A) of the same molecule?
**A.** 37%

**Q.** And the “Reduction of colony formation” value [7]?
**A.** 57%

**Q.** What about the “Reduction of colony formation” value [8] of the same molecule?
**A.** 60%

B2: 2G11: anti-hNav1.7 mouse monoclonal antibody, IgG2a, k; heavy chain SEQ ID NO: 117, light chain SEQ ID NO: 119 (antibody, V domains shown)
VH: QVQLQQPGAELVKPGASVKLSCKASGYTFTTYWMHWVKQRPGQGLEWIGEINPSNGRANYNEKFKSKATLTVDKSSSTAYMQLSSLTSEDSAVYYCLRSLGYFDYWGQGTTLTVSSAKTTAPSVYPLAPG
VL: DVVMTQSPLSLPVSLGDQASISCRSSQSLVHSNGNTYLHWYLQKAGQSPKFLIYKVSNRFSGVPDRFSGSGSGTDFTLKISRVEAEDLGVYFCSQSTHVPYTFGGGTKLEIKRADAAPTVSIFPPSS
modifications: Heavy chain of the 2G11 antibody without leader sequence; Light chain of the 2G11 antibody without leader sequence
**Q.** Which results are given for B2?
**A.** ELISA on live cells (duplicates) CHO-3E7 ([1]; duplicate 1): −0.027; ELISA on live cells (duplicates) CHO-3E7 ([1]; duplicate 2): −0.025; Voltage-dependence of activation (shift V1/2 activation) ([9]; 1 μM): −4.7 mV; Voltage-dependence of the steady-state fast inactivation (shift V1/2 inactivation) ([9]; 1 μM): −13.9 mV; Onset time of the effect (exponential fit of the current decay, T) ([9]; 2 μM, single time-course recording of the figure): 57 s; Effect on hNav1.7 currents (in words) ([9]; example recordings, 1-3 μM): reduced the hNav1.7 currents; Fast inactivation (time constant) [9, 12]: 0.81 ms; Time-to-peak [9, 12]: 0.87 ms; Percentage of effect after injection (on left paw withdrawal) ([2]; 100 μg intraplantar, 0 h): 0%; Latency paw withdrawal ([2]; 100 μg intraplantar, 1 h): 8.80 ± 1.02 s; Percentage of effect after injection (on left paw withdrawal) ([2]; 100 μg intraplantar, 1 h): 27.98% ± 7.17; Latency paw withdrawal ([2]; 100 μg intraplantar, 2 h): 7.86 ± 0.33 s; Percentage of effect after injection (on left paw withdrawal) ([2]; 100 μg intraplantar, 2 h): 22.02% ± 2.08; Latency paw withdrawal ([2]; 100 μg intraplantar, 4 h): 8.45 ± 0.44 s; Percentage of effect after injection (on left paw withdrawal) ([2]; 100 μg intraplantar, 4 h): 25.80% ± 2.82; Maximum percentage of the effect (% Effect; % MPE) ([2]; 100 μg intraplantar): 27.98±7.17%; Latency paw withdrawal ([2]; intraplantar, mAbs 100 μg, 11E5 dose not stated, time not given): 8.45 ± 0.44 s; Time spent in pain behaviors (saline plus OD1 = 100%) [3]: 63.47±4.78%; ka [10]: 9560 M⁻¹ s⁻¹; kd [10]: 0.000526 s⁻¹; Rmax (RU) ([10]; Fc-captured mAb, FC5-DIE3IR flowed, 25 °C): 84 RU; Binding to FC5DIE3IR (comment, in words) ([10]; SPR, 25 °C): strong and specific binding; also recorded: strongly and specifically bound; Binding to FC5 control (comment, in words) [4]: did not bind; also recorded: No binding; Peptide in which the binding motif resides / that is bound [5]: pep #40a; Stabilization of FC5DIE3IR in response to mAb binding (residues, differential HDX-MS) [11]: Asn121-Tyr134; Reduction of colony formation ([6]; different experiment, FIG. 24B): 60%
